Earlier results in publication PMC8035318.

Molecular target: Polκ RIR (Homo sapiens) (UniProt Q9UBT6)
Assay: SPR

Kd: 1700 nM
Substance: Rev1 CT (from UniProt Q9UBZ9)
